Numbering of substitutions follows the chain as printed. Names and notes keep the numbering of the source. Values joined by “and” are separate entries in the source; they are usually repeats but may differ in a detail not shown here. Identical values can stand only once.
Tests used:
[1] = Luminescence activity assay of purified Gaussia luciferase mutants on coelenterazine; type: biochemical; design: key to Activity of mutant relative to wild-type Gaussia luciferase without the signal peptide: ratio of mutant luminescence intensity to wild-type Gaussia luciferase; conditions: for measured value, CTZ: purified combinatorial mutant, substrate coelenterazine (CTZ); for Measured luminescence intensity (CTZ): purified luciferase 1 μg/mL, 10 μL, 90 μL substrate coelenterazine 100 μM; for Ratio of luminescence intensities of advantageous mutant to wild-type Gaussia luciferase without signal peptide (CTZ): substrate coelenterazine 100 μM, vs no sp Gluc average; for Activity of mutant relative to wild-type Gaussia luciferase without the signal peptide: Substrate CTZ (Table 16)
Summary of the method: (§1)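 Readout: luminescence intensity, as ratio to signal-peptide-free wild-type enzyme. Enzyme 1 μg/mL, substrate 100 μM stock, 10 μL + 90 μL; buffer 50 mM Tris-HCl pH 8.0, 100 mM NaCl, 0.1% Tween-20.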

[2] = Luminescence activity assay of purified Gaussia luciferase mutants on coelenterazine derivative ZS2; type: biochemical; design: key to Activity of mutant relative to wild-type Gaussia luciferase without the signal peptide: ratio of mutant luminescence intensity to wild-type Gaussia luciferase; conditions: for measured value, ZS-2: purified combinatorial mutant, substrate coelenterazine derivative ZS2; for ratios of catalytic activities on ZS2 relative to ZS26: substrate specificity, FIG. 10, in words; for Measured luminescence intensity (ZS2): purified luciferase 1 μg/mL, 10 μL, 90 μL substrate ZS2 100 μM; for Ratio of luminescence intensities of advantageous mutant to wild-type Gaussia luciferase without signal peptide (ZS2): substrate ZS2 100 μM, vs no sp Gluc average; for Activity of mutant relative to wild-type Gaussia luciferase without the signal peptide: Substrate ZS2 (Table 16)
Summary of the method: as §1

[3] = Luminescence activity assay of purified Gaussia luciferase mutants on fluoro-coelenterazine; type: biochemical; design: key to Activity of mutant relative to wild-type Gaussia luciferase without the signal peptide: ratio of mutant luminescence intensity to wild-type Gaussia luciferase; conditions: for measured value, f-CTZ: purified combinatorial mutant, substrate fluoro-coelenterazine (f-CTZ); for Measured luminescence intensity (f-CTZ): purified luciferase 1 μg/mL, 10 μL, 90 μL substrate fluoro-coelenterazine 100 μM; for Ratio of luminescence intensities of advantageous mutant to wild-type Gaussia luciferase without signal peptide (f-CTZ): substrate fluoro-coelenterazine 100 μM, vs no sp Gluc average; for Activity of mutant relative to wild-type Gaussia luciferase without the signal peptide: Substrate f-CTZ (Table 16)
Summary of the method: as §1

[4] = Substrate specificity test of combinatorial mutants: activity on coelenterazine derivative ZS26; type: biochemical; conditions: for measured value, ZS-26: purified combinatorial mutant, substrate coelenterazine derivative ZS26; for ratio of catalytic activities, ZS2/ZS26 / ratio of catalytic activities, CTZ/ZS26 / ratio of catalytic activities, f-CTZ/ZS26: substrate specificity; for ratio of catalytic activities, ZS2/ZS26: ZS2 relative to ZS26; for ratio of catalytic activities, CTZ/ZS26: coelenterazine relative to ZS26; for ratio of catalytic activities, f-CTZ/ZS26: fluoro-coelenterazine relative to ZS26
Experimental: In this Example, the protein concentration was determined with a BCA quantitative kit (Thermo Scientific™ Pierce™ BCA Protein Assay Kit) accurately. The purified luciferase obtained in Example 5 was diluted with diluent (50 mM Tris-HCl, pH 8.0, 100 mM NaCl, 0.1% (v/v) Tween-20) to 1 μg/mL. The diluted luciferase, taken for 10 μL, was moved into a black 96-well plate, then added with 90 μL of the substrates coelenterazine, fluoro-coelenterazine or coelenterazine derivative ZS2 (purchased from Biolab) which was diluted into 100 μM with the same diluent, and the luminescence intensity of the plate was read with a self-luminescence module of a microplate reader. The mutation site of the mutant, the measured luminescence intensity, the ratio of luminescence intensities of the advantageous mutants to the wild-type Gaussia luciferase without the signal peptide having the sequence shown in SEQ ID NO: 3 are shown in Table 15. The results of catalytic activity assay of the advantageous mutants relative to the wild-type Gaussia luciferase without the signal peptide having the sequence shown in SEQ ID NO: 3 on substrate coelenterazine are shown in FIG. 6. […] The results of catalytic activity assay of the advantageous mutants relative to the wild-type Gaussia luciferase without the signal peptide having the sequence shown in SEQ ID NO: 3 on substrate fluoro-coelenterazine are shown in FIG. 7.
The new mutant library constructed in Example 7 was screened and tested for substrate specificity. Expression and purification schemes were the same as that in Example 5, and the activity assay scheme was the same as that in Example 6. The respective catalytic activities of combinatorial mutants on coelenterazine, fluoro-coelenterazine or coelenterazine derivative ZS2, and coelenterazine derivative ZS26 (purchased from BIOLAB) were assayed, and comparisons among the substrate specificities of the combinatorial mutants were based on the ratios of catalytic activities on two corresponding substrates.

[5] = Activity assay of Gaussia luciferase at bacteria solution level (substrate CTZ); type: cell-based; conditions: OrigamiB (DE3) competent cells; 100 μL induced bacteria solution; CTZ final 100 μM; FIG. 4
Experimental: The expression plasmids pET28a-Gluc wt and pCold-no sp Glue obtained in Example 1 were individually transformed into BL21 (DE3) competent cells or OrigamiB (DE3) chemically competent cells (WEIDI BIO, EC1020S) and applied to plate medium. Then single colonies were picked from the plate for culture overnight at 37° C. The cultured clones were diluted at the ratio of 1:100 the next day, and transferred into 3 mL of fresh LB medium with ampicillin at 100 μg/mL, shaked at 37° C., 200 rpm until OD600≈0.5-0.6, followed by cooling on ice for 1 hour. IPTG was added at a final concentration of 1 mM as inducer for induction overnight at 16° C.
The induced bacteria solution, taken for 100 μL, was moved into a black 96-well plate, then added with 100 μL of a substrate CTZ (purchased from BIOLAB) at a final concentration of 100 μM. The luminescence intensity was read with a self-luminescence module of a microplate reader. […] Accordingly, the subsequent experiments were conducted with the Gaussia luciferase without the signal peptide.

B1: mutant E1-G12: Gaussia luciferase combinatorial mutant encoded by SEQ ID NO: 42 (protein)
chain: MKPTENNEDLNILDIAKNFIETDLDADRGKLPGKKLPLEVLKEMEANARIAGCTRGCLICLSKIKCTLKMKKFIPGRCHTYEGDKSTGQGGIGPAIVDIPEIPGFKDMEPMEQFIAQVDLCEDCTTGCLKGLANVQCSDLLKKWLPQRCATFASKIQGQVDKIKGAGGD
In the case of B1, the “measured value, CTZ” value [1] is reported as 689624, the “measured value, ZS-2” value [2] is reported as 401271 and the “ratios of catalytic activities on ZS2 relative to ZS26” value [2] is reported as “significantly improved”. For the same molecule, the “measured value, f-CTZ” value [3] was 94900, the “measured value, ZS-26” value [4] was 31521 and the “ratio of catalytic activities, ZS2/ZS26” value [4] was 12.73. For the same molecule, the “ratio of catalytic activities, CTZ/ZS26” value [4] was 21.87 and the “ratio of catalytic activities, f-CTZ/ZS26” value [4] was 3.01.

B2: mutant 4-C12: Gaussia luciferase combinatorial mutant encoded by SEQ ID NO: 43 (protein)
chain: B1 chain with L10F, L13V, D14A, I15V, K17S, I20A, E21T, I50K, L68P
For B2, the “measured value, CTZ” value [1] was 1675889, the “measured value, ZS-2” value [2] was 773694 and the “ratios of catalytic activities on ZS2 relative to ZS26” value [2] was “significantly improved”. For the same molecule, the “measured value, f-CTZ” value [3] was 167522, the “measured value, ZS-26” value [4] was 64057 and the “ratio of catalytic activities, ZS2/ZS26” value [4] was 12.08. For the same molecule, the “ratio of catalytic activities, CTZ/ZS26” value [4] was 26.16 and the “ratio of catalytic activities, f-CTZ/ZS26” value [4] was 2.62.

B3: no sp Gluc: wild type Gaussia luciferase without signal peptide, having a sequence shown in SEQ ID NO: 3 (protein)
chain: KPTENNEDFNIVAVASNFATTDLDADRGKLPGKKLPLEVLKEMEANARKAGCTRGCLICLSHIKCTPKMKKFIPGRCHTYEGDKESAQGGIGEAIVDIPEIPGFKDLEPMEQFIAQVDLCVDCTTGCLKGLANVQCSDLLKKWLPQRCATFASKIQGQVDKIKGAGGD
In the case of B3, the “luminescence value at bacteria solution level” value [5] is reported as “highest luminescence value”, the “Measured luminescence intensity (CTZ)” value [1] is reported as 253597 and 276603 and 266322 and the “Measured luminescence intensity (CTZ)” value ([1]; listed as no sp Gluc average) is reported as 265507.3. For the same molecule, the “Ratio of luminescence intensities of advantageous mutant to wild-type Gaussia luciferase without signal peptide (CTZ)” value [1] was 0.96 and 1.04 and 1, the “Ratio of luminescence intensities of advantageous mutant to wild-type Gaussia luciferase without signal peptide (CTZ)” value ([1]; listed as no sp Gluc average) was 1 and the “Measured luminescence intensity (ZS2)” value [2] was 18344 and 20707 and 22415. The “Measured luminescence intensity (ZS2)” value ([2]; listed as no sp Gluc average) was 20488.67, the “Ratio of luminescence intensities of advantageous mutant to wild-type Gaussia luciferase without signal peptide (ZS2)” value [2] was 0.9 and 1.01 and 1.09 and the “Ratio of luminescence intensities of advantageous mutant to wild-type Gaussia luciferase without signal peptide (ZS2)” value ([2]; listed as no sp Gluc average) was 1. For the same molecule, the “Measured luminescence intensity (f-CTZ)” value [3] was 5662 and 7198 and 6191, the “Measured luminescence intensity (f-CTZ)” value ([3]; listed as no sp Gluc average) was 6350.333 and the “Ratio of luminescence intensities of advantageous mutant to wild-type Gaussia luciferase without signal peptide (f-CTZ)” value [3] was 0.89 and 1.13 and 0.97. The “Ratio of luminescence intensities of advantageous mutant to wild-type Gaussia luciferase without signal peptide (f-CTZ)” value ([3]; listed as no sp Gluc average) was 1.

B4: F26G N27D V29L A30V V31I A32G S33D A36W T37S: Gaussia luciferase mutant (protein)
chain: MGVKVLFALICIAVAEAKPTENNEDGDILVIGDNFWSTDLDADRGKLPGKKLPLEVLKEMEANARKAGCTRGCLICLSHIKCTPKMKKFIPGRCHTYEGDKESAQGGIGEAIVDIPEIPGFKDLEPMEQFIAQVDLCVDCTTGCLKGLANVQCSDLLKKWLPQRCATFASKIQGQVDKIKGAGGD
modifications: SIGNAL (1)..(17)
notes: Gaussia luciferase mutant
With B4 the “Activity of mutant relative to wild-type Gaussia luciferase without the signal peptide” value [1] was 0.038, the “Activity of mutant relative to wild-type Gaussia luciferase without the signal peptide” value [2] was 0.027 and the “Activity of mutant relative to wild-type Gaussia luciferase without the signal peptide” value [3] was 0.040.

B5: F26N V29S A30D S33D A36T T37A L40G: Gaussia luciferase mutant (protein)
chain: B4 chain with G26N, D27N, L29S, V30D, I31V, G32A, W36T, S37A, L40G
modifications: SIGNAL (1)..(17)
notes: Gaussia luciferase mutant
With B5 the “Activity of mutant relative to wild-type Gaussia luciferase without the signal peptide” value [1] was 0.098, the “Activity of mutant relative to wild-type Gaussia luciferase without the signal peptide” value [2] was 0.106 and the “Activity of mutant relative to wild-type Gaussia luciferase without the signal peptide” value [3] was 0.121.

B6: F26G N27Y A30G V31L A32G S33L A36Y T37V L40E: Gaussia luciferase mutant (protein)
chain: B4 chain with D27Y, L29V, V30G, I31L, D33L, W36Y, S37V, L40E
modifications: SIGNAL (1)..(17)
notes: Gaussia luciferase mutant
In the case of B6, the “Activity of mutant relative to wild-type Gaussia luciferase without the signal peptide” value [1] is reported as 0.031, the “Activity of mutant relative to wild-type Gaussia luciferase without the signal peptide” value [2] is reported as 0.027 and the “Activity of mutant relative to wild-type Gaussia luciferase without the signal peptide” value [3] is reported as 0.025.

B7: F26L V29A V31I A32D S33R A36N T37E LA0P: Gaussia luciferase mutant (protein)
chain: B4 chain with G26L, D27N, L29A, V30A, G32D, D33R, W36N, S37E
For B7, the “Activity of mutant relative to wild-type Gaussia luciferase without the signal peptide” value [1] was 0.406, the “Activity of mutant relative to wild-type Gaussia luciferase without the signal peptide” value [2] was 0.385 and the “Activity of mutant relative to wild-type Gaussia luciferase without the signal peptide” value [3] was 0.402.

B8: F26L N27H V29C V31I S33V A36Q T37S L40G: Gaussia luciferase mutant (protein)
chain: B4 chain with G26L, D27H, L29C, V30A, G32A, D33V, W36Q, L40G
modifications: SIGNAL (1)..(17)
notes: Gaussia luciferase mutant
With B8 the “Activity of mutant relative to wild-type Gaussia luciferase without the signal peptide” value [1] was 0.066, the “Activity of mutant relative to wild-type Gaussia luciferase without the signal peptide” value [2] was 0.067 and the “Activity of mutant relative to wild-type Gaussia luciferase without the signal peptide” value [3] was 0.095.

B9: F26I N27D V29A A30D V31I S33K A36N T37K L40P: Gaussia luciferase mutant (protein)
chain: B4 chain with G26I, L29A, V30D, G32A, D33K, W36N, S37K, L40P
modifications: SIGNAL (1)..(17)
notes: Gaussia luciferase mutant
In the case of B9, the “Activity of mutant relative to wild-type Gaussia luciferase without the signal peptide” value [1] is reported as 0.016, the “Activity of mutant relative to wild-type Gaussia luciferase without the signal peptide” value [2] is reported as 0.026 and the “Activity of mutant relative to wild-type Gaussia luciferase without the signal peptide” value [3] is reported as 0.080.

B10: F26G N27Y V29C A30V V31L S33G A36R T37A L40A: Gaussia luciferase mutant (protein)
chain: B4 chain with D27Y, L29C, I31L, G32A, D33G, W36R, S37A, L40A
modifications: SIGNAL (1)..(17)
notes: Gaussia luciferase mutant
For B10, the “Activity of mutant relative to wild-type Gaussia luciferase without the signal peptide” value [1] was 0.088, the “Activity of mutant relative to wild-type Gaussia luciferase without the signal peptide” value [2] was 0.080 and the “Activity of mutant relative to wild-type Gaussia luciferase without the signal peptide” value [3] was 0.104.

B11: F26I V29A A30D A32V S33K T37E L40A: Gaussia luciferase mutant (protein)
chain: B4 chain with G26I, D27N, L29A, V30D, I31V, G32V, D33K, W36A, S37E, L40A
modifications: SIGNAL (1)..(17)
notes: Gaussia luciferase mutant
For B11, the “Activity of mutant relative to wild-type Gaussia luciferase without the signal peptide” value [1] was 1.470, the “Activity of mutant relative to wild-type Gaussia luciferase without the signal peptide” value [2] was 1.231 and the “Activity of mutant relative to wild-type Gaussia luciferase without the signal peptide” value [3] was 0.583.

Source: patent US20250066745A1, “MUTANTS AND USE THEREOF” (BGI SHENZHEN, priority 2021, published 2025)
